# In publication PMC10397247:
# What was measured:
# 4H816-AA = target: T1, 4H816-AA; experiment: two-hybrid library CCmax; conditions: mean of both orientations;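 note: natural log of median RNA to DNA barcode read ratio; higher means stronger binding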
# T1 chain: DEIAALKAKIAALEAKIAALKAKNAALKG
# 4H510-AA = target: T2, 4H510-AA; experiment: two-hybrid library CCmax; conditions: mean of both orientations;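 note: natural log of median RNA to DNA barcode read ratio; higher means stronger binding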
# T2 chain: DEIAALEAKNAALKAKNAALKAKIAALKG
# 4H278-AA = target: T3, 4H278-AA; experiment: two-hybrid library CCmax; conditions: mean of both orientations;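 note: natural log of median RNA to DNA barcode read ratio; higher means stronger binding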
# T3 chain: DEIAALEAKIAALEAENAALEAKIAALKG
# 4H2873-AA = target: T4, 4H2873-AA; experiment: two-hybrid library CCmax; conditions: mean of both orientations;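 note: natural log of median RNA to DNA barcode read ratio; higher means stronger binding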
# T4 chain: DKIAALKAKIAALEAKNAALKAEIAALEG
# 4H2646-AA = target: T5, 4H2646-AA; experiment: two-hybrid library CCmax; conditions: mean of both orientations;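 note: natural log of median RNA to DNA barcode read ratio; higher means stronger binding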
# T5 chain: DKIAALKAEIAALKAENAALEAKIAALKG
# 4H2758-AA = target: T6, 4H2758-AA; experiment: two-hybrid library CCmax; conditions: mean of both orientations;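 note: natural log of median RNA to DNA barcode read ratio; higher means stronger binding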
# T6 chain: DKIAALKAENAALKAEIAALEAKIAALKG
# 4H2985-AA = target: T7, 4H2985-AA; experiment: two-hybrid library CCmax; conditions: mean of both orientations
# T7 chain: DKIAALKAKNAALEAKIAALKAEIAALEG
# 4H2512-AA = target: T8, 4H2512-AA; experiment: two-hybrid library CCmax; conditions: mean of both orientations
# T8 chain: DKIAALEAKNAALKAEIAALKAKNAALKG
# 4H233-AA = target: T9, 4H233-AA; experiment: two-hybrid library CCmax; conditions: mean of both orientations
# T9 chain: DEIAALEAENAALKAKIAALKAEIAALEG
# 4H3409-AA = target: T10, 4H3409-AA; experiment: two-hybrid library CCmax; conditions: mean of both orientations
# T10 chain: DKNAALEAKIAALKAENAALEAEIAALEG
# 4H3625-AA = target: T11, 4H3625-AA; experiment: two-hybrid library CCmax; conditions: mean of both orientations
# T11 chain: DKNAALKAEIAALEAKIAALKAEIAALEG
# 4H87-AA = target: T12, 4H87-AA; experiment: two-hybrid library CCmax
# T12 chain: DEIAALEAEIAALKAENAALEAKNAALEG
# 4H1985-AA = target: T13, 4H1985-AA; experiment: two-hybrid library CCmax
# T13 chain: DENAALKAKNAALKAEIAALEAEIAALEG
# 4H3134-AA = target: T14, 4H3134-AA; experiment: two-hybrid library CCmax; conditions: mean of both orientations
# T14 chain: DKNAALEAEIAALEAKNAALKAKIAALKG
# 4H775-AA = target: T15, 4H775-AA; experiment: two-hybrid library CCmax; conditions: mean of both orientations
# T15 chain: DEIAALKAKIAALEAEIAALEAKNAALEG
# 4H3940-AA = target: T16, 4H3940-AA; experiment: two-hybrid library CCmax; conditions: mean of both orientations
# T16 chain: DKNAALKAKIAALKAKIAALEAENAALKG
# 4H2687-AA = target: T17, 4H2687-AA; experiment: two-hybrid library CCmax; conditions: mean of both orientations
# T17 chain: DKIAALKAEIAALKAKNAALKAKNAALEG
# 4H2705-AA = target: T18, 4H2705-AA; experiment: two-hybrid library CCmax; conditions: mean of both orientations
# T18 chain: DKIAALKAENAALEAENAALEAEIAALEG
# 4H2187-AA = target: T19, 4H2187-AA; experiment: two-hybrid library CCmax; conditions: mean of both orientations
# T19 chain: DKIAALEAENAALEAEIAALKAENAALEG
# 4H390-AA = target: T20, 4H390-AA; experiment: two-hybrid library CCmax; conditions: mean of both orientations
# T20 chain: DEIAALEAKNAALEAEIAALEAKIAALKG
# P6mS = target: T21, P6mS; experiment: two-hybrid library CCNG1
# T21 chain: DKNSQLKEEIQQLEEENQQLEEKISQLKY
# P5mS = target: T22, P5mS; experiment: two-hybrid library CCNG1
# T22 chain: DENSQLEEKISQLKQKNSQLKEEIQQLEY
# P9mS = target: T23, P9mS; experiment: two-hybrid library CCNG1
# T23 chain: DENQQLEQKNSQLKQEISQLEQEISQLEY
# P8mS = target: T24, P8mS; experiment: two-hybrid library CCNG1
# T24 chain: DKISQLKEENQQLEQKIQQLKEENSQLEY
# P7mS = target: T25, P7mS; experiment: two-hybrid library CCNG1
# T25 chain: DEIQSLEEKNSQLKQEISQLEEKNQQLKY
# P4mS = target: T26, P4mS; experiment: two-hybrid library CCNG1
# T26 chain: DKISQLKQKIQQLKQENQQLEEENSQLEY
binder,measurement,setting,value
DENAALKAKNAALKAEIAALEAEIAALEG [4H1985-AA],interaction score,4H816-AA,-0.103
same,interaction score,4H510-AA,-0.896
same,interaction score,4H278-AA,-1.45
same,interaction score,4H2873-AA,-1.18
same,interaction score,4H2646-AA,0.352
same,interaction score,4H2758-AA,0.628
same,interaction score,4H2985-AA,-0.418
same,interaction score,4H2512-AA,-1.41
same,interaction score,4H233-AA,0.704
same,interaction score,4H3409-AA,-1.05
same,interaction score,4H3625-AA,-0.122
same,interaction score,4H87-AA,-1.37
same,interaction score,4H1985-AA,-1.91
same,interaction score,4H3134-AA,-0.682
same,interaction score,4H775-AA,-1.28
same,interaction score,4H3940-AA,-0.542
same,interaction score,4H2687-AA,-1.92
same,interaction score,4H2705-AA,-1.05
same,interaction score,4H2187-AA,-2.04
same,interaction score,4H390-AA,1.06
DKISQLKQKIQQLKQENQQLEEENSQLEY [P4mS],interaction score,P6mS,-1.48
same,interaction score,P5mS,-1.04
same,interaction score,P9mS,-1.28
same,interaction score,P8mS,-1.85
same,interaction score,P7mS,-1.14
same,interaction score,P4mS,-1.66
